Data taken from patent publication US12138315 (Daiichi Sankyo, dated 2024).

T1: human CD37 protein (human, UniProt P11049 1-281)
T1 construct: Four-pass transmembrane tetraspanin
T1 sequence: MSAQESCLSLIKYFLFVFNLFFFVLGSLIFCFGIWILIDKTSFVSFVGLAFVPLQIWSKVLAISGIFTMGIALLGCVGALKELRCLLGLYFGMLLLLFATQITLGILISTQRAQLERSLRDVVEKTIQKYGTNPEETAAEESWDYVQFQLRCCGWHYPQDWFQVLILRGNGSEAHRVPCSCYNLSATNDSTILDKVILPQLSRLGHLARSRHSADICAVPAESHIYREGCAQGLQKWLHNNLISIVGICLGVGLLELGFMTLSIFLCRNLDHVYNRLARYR

B1: hmAb-H11L11-DXd (antibody, V domains shown)
VH: EVQLVQSGAEVKKPGASVKVSCKASGYSFTDYNMYWVRQAPGQSLEWMGYIDPYNGDTTYNQKFQGRVTITADTSTSTAYMELSSLRSEDTAVYYCARSPYGHYAMDYWGQGTLVTVSS
VL: DIQMTQSPSSLSASVGDRVTITCKASQDVSTAVDWYQQKPGKAPKLLINWASTRHTGVPSRFSGSGSGTDFTLTISSLQPEDFATYYCRQHYSTPFTFGQGTKVEIKR
modifications: drug linker on sulfhydryl groups of reduced interchain disulfide cysteines; positions not given; drug linker (maleimidocaproyl-GGFG-DXd, exatecan derivative) on sulfhydryl groups of reduced interchain disulfide cysteines by thioether bond; average number of conjugated drug molecules per antibody 7.4 to 7.7 (common procedure F); positions not given
notes: also called hmAb-H11L11-ADC
B2: hmAb-H11L11 (antibody, human IgG1, kappa, V domains shown)
VH: EVQLVQSGAEVKKPGASVKVSCKASGYSFTDYNMYWVRQAPGQSLEWMGYIDPYNGDTTYNQKFQGRVTITADTSTSTAYMELSSLRSEDTAVYYCARSPYGHYAMDYWGQGTLVTVSS
VL: DIQMTQSPSSLSASVGDRVTITCKASQDVSTAVDWYQQKPGKAPKLLINWASTRHTGVPSRFSGSGSGTDFTLTISSLQPEDFATYYCRQHYSTPFTFGQGTKVEIKR
notes: Unconjugated humanized IgG1 kappa antibody derived from mouse HH1; also called anti-CD37 humanized antibody having hmAb-H11 as a heavy chain and hmAb-L11 as a light chain
B3: hmAb-H11aL11-DXd (antibody, human IgG1, kappa, V domains shown)
VH: EVQLVQSGAEVKKPGASVKVSCKASGYSFTDYNMYWVRQAPGQSLEWMGYIDPYNGDTTYNQKFQGRVTITADKSKSTAYMELSSLRSEDTAVYYCARSPYGHYAMDYWGQGTLVTVSS
VL: DIQMTQSPSSLSASVGDRVTITCKASQDVSTAVDWYQQKPGKAPKLLINWASTRHTGVPSRFSGSGSGTDFTLTISSLQPEDFATYYCRQHYSTPFTFGQGTKVEIKR
modifications: drug linker on sulfhydryl groups of reduced interchain disulfide cysteines; positions not given; drug linker (maleimidocaproyl-GGFG-DXd, exatecan derivative) on sulfhydryl groups of reduced interchain disulfide cysteines by thioether bond; average number of conjugated drug molecules per antibody 7.6 (common procedure F); positions not given
notes: also called hmAb-H11aL11-ADC
B4: hmAb-H11aL11 (antibody, human IgG1, kappa, V domains shown)
VH: EVQLVQSGAEVKKPGASVKVSCKASGYSFTDYNMYWVRQAPGQSLEWMGYIDPYNGDTTYNQKFQGRVTITADKSKSTAYMELSSLRSEDTAVYYCARSPYGHYAMDYWGQGTLVTVSS
VL: DIQMTQSPSSLSASVGDRVTITCKASQDVSTAVDWYQQKPGKAPKLLINWASTRHTGVPSRFSGSGSGTDFTLTISSLQPEDFATYYCRQHYSTPFTFGQGTKVEIKR
notes: Unconjugated humanized IgG1 kappa antibody; also called anti-CD37 humanized antibody having hmAb-H11a as a heavy chain and hmAb-L11 as a light chain
B5: hmAb-H551L11-DXd (antibody, human IgG1, kappa, V domains shown)
VH: EVQLVQSGAEVKKPGASVKVSCKASGYSFTDYNMYWVRQAPGQSLEWMGYIDPYNGDTTYNQKFQGRVTMTRDTSSSTAYMELSRLRSDDTAVYYCARSPYGHYAMDYWGQGTTVTVSS
VL: DIQMTQSPSSLSASVGDRVTITCKASQDVSTAVDWYQQKPGKAPKLLINWASTRHTGVPSRFSGSGSGTDFTLTISSLQPEDFATYYCRQHYSTPFTFGQGTKVEIKR
modifications: drug linker on sulfhydryl groups of reduced interchain disulfide cysteines; positions not given; drug linker (maleimidocaproyl-GGFG-DXd, exatecan derivative) on sulfhydryl groups of reduced interchain disulfide cysteines by thioether bond; average number of conjugated drug molecules per antibody 7.8 (common procedure F); positions not given
notes: also called hmAb-H551L11-ADC
B6: hmAb-H541L11 (antibody, human IgG1, kappa, V domains shown)
VH: EVQLVQSGAEVKKPGASVKVSCKASGYSFTDYNMYWVRQAPGQSLEWMGYIDPYNGDTTYNQKFQGRVTMTRDTSISTAYMELSRLRSDDTAVYYCARSPYGHYAMDYWGQGTTVTVSS
VL: DIQMTQSPSSLSASVGDRVTITCKASQDVSTAVDWYQQKPGKAPKLLINWASTRHTGVPSRFSGSGSGTDFTLTISSLQPEDFATYYCRQHYSTPFTFGQGTKVEIKR
notes: Unconjugated humanized IgG1 kappa antibody; also called anti-CD37 humanized antibody having hmAb-H541 as a heavy chain and hmAb-L11 as a light chain
B7: hmAb-H541L11-DXd (antibody, human IgG1, kappa, V domains shown)
VH: EVQLVQSGAEVKKPGASVKVSCKASGYSFTDYNMYWVRQAPGQSLEWMGYIDPYNGDTTYNQKFQGRVTMTRDTSISTAYMELSRLRSDDTAVYYCARSPYGHYAMDYWGQGTTVTVSS
VL: DIQMTQSPSSLSASVGDRVTITCKASQDVSTAVDWYQQKPGKAPKLLINWASTRHTGVPSRFSGSGSGTDFTLTISSLQPEDFATYYCRQHYSTPFTFGQGTKVEIKR
modifications: drug linker on sulfhydryl groups of reduced interchain disulfide cysteines; positions not given; drug linker (maleimidocaproyl-GGFG-DXd, exatecan derivative) on sulfhydryl groups of reduced interchain disulfide cysteines by thioether bond; average number of conjugated drug molecules per antibody 7.8 (common procedure F); positions not given
notes: also called hmAb-H541L11-ADC
B8: hmAb-H551L11 (antibody, human IgG1, kappa, V domains shown)
VH: EVQLVQSGAEVKKPGASVKVSCKASGYSFTDYNMYWVRQAPGQSLEWMGYIDPYNGDTTYNQKFQGRVTMTRDTSSSTAYMELSRLRSDDTAVYYCARSPYGHYAMDYWGQGTTVTVSS
VL: DIQMTQSPSSLSASVGDRVTITCKASQDVSTAVDWYQQKPGKAPKLLINWASTRHTGVPSRFSGSGSGTDFTLTISSLQPEDFATYYCRQHYSTPFTFGQGTKVEIKR
notes: Unconjugated humanized IgG1 kappa antibody; also called anti-CD37 humanized antibody having hmAb-H551 as a heavy chain and hmAb-L11 as a light chain

biological target: T1, human CD37 protein; test: flow cytometry on OCI-LY7 cells, FITC anti-human IgG Fc secondary
Description: 4)-1 Evaluation of Binding Activity of Humanized Anti-CD37 Antibody-Drug Conjugate The binding activity of the four antibody-drug conjugates (clone names: hmAb-H11L11-DXd, hmAb-H541L11-DXd, hmAb-H551L11-DXd, and hmAb-H11aL11-DXd) produced in Example 2 was evaluated by flow cytometry. CD37-positive human diffuse large B-cell lymphoma cell line OCI-LY7 (DSMZ) cultured in IMDM medium supplemented with 20% FBS under conditions of 37° C. and 5% CO_2 were recovered and centrifuged. After removal of the supernatant, the cells were suspended by the addition of each of the four antibody-drug conjugates or a negative control antibody-drug conjugate (hmAb-IgG1-DXd) produced using human IgG at each concentration. The cells were left standing at 4° C. for 1 hour. The cells were washed twice with PBS supplemented with 5% FBS, and then suspended by the addition of FLUORESCEIN (FITC)-AffiniPure F(ab')2 Fragment Goat Anti-Human IgG, Fcγ Fragment Specific (Jackson ImmunoResearch Laboratories, Inc.) that had been 100-fold diluted with PBS supplemented with 5% FBS. The cells were left standing at 4° C. for 30 minutes. The cells were washed twice with PBS supplemented with 5% FBS, followed by detection using a flow cytometer (BD LSRFortessa TM X-20, BD Biosciences). The data was analyzed using FlowJo (Tree Star, Inc.). In FIG. 6, the abscissa depicts antibody concentration (μg/ml), and the ordinate depicts the amount of the antibody bound by MFI (mean fluorescence intensity).

Binding result, binds:
B1
B2
B3
B4
B5
B6
B7
B8
